Experimental data: US20180118802A1
One block for each substance: values may come before it.

Legend:
[1] = molecular target: LRP2 CR89 (human) (UniProt P98164); experiment: solid-phase binding assay, CR protein coated, anti-RAP detection
[2] = molecular target: CR pair used to test the MatRAP1 truncations (not named); experiment: solid-phase binding assay of truncated variants (FIG. 9)
[3] = molecular target: 8D6 CR12 (human) (UniProt Q9NPF0); experiment: solid-phase binding assay (FIG. 10)
8D6 CR12 (human), sequence (Q9NPF0 other isoform, or with tags, fused parts or gaps): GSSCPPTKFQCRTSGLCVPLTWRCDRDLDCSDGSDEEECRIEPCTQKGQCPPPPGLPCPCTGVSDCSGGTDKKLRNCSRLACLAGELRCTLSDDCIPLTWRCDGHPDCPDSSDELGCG

MatRAP1 N-42, sequence (P30533 other isoform, or with tags, fused parts or gaps): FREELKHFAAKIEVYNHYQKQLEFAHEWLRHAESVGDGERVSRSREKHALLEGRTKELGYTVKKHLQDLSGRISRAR
LRP2 CR89 (human), sequence (P98164 1025-1102): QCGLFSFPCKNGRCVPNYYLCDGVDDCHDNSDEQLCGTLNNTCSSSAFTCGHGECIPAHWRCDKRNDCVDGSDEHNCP

% max [1]: 35%
Substance: MegaRAP1 d3 Y249H (from UniProt P30533 235-353) (ligand)

fold increase in affinity over MatRAP1 N-42 [2]: 4 fold
fold increase in affinity over the full-length d3 variant [2]: 12 fold
Substance: MatRAP1 amino acids 243-313 (best truncated variant, 71 amino acids) (from UniProt P30533 277-347) (ligand)

fold improvement in affinity against the full-length variant [3]: 3.5 fold
Substance: 320RAP1 truncated form (identical truncations, amino acids 243-313) (from UniProt P30533 277-347) (ligand)

fold increase in affinity over the full-length d3 variant [2]: 3 fold
Substance: MatRAP1 N-42 (from UniProt P30533 277-353) (ligand)
